Source: the supplement of paper PMC9732359
± gives the uncertainty stated by the source.

Experiment: protein stability index of a GFP-peptide fusion (yeast GPS) (PSI 1-4); higher = more stable; sorted into four equal gates, so the index is relative within each strain
In short: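 Mid-log yeast cultures in leucine-free medium, carrying a pooled plasmid library, were sorted into four equal gates by their GFP/Cherry fluorescence ratio. Each plasmid expressed Cherry along with GFP fused upstream of a tiled 17-residue yeast protein peptide. Plasmids recovered from each gate were PCR-amplified and Illumina-sequenced, with reads assigned to strains by barcodes. The protein stability index was obtained by summing each gate's read frequency weighted by its gate number.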

| Sequence | protein stability index (san1∆) | protein stability index (ubr1∆) | protein stability index (doa10∆) | protein stability index (pdr5∆) |
| --- | --- | --- | --- | --- |
| PNGTKKAYVRLTADYDA [RPL25] | 3.07 ± 0.16 | 3.34 ± 0.15 | – | – |
| TTILSFSSPAALMKTLI [NUT1] | 2.09 ± 0.1 | 1.78 ± 0.054 | 1.65 ± 0.047 | 1.75 ± 0.05 |
| NATANATANATANATAE [SNF11] | 3.18 ± 0.042 | 3.325 ± 0.03 | 3.15 ± 0.04 | 3.33 ± 0.042 |
| ATKDNELNVKHVKQCQE [SMC2] | 2.97 ± 0.066 | 3.32 ± 0.05 | 2.96 ± 0.1 | 3.35 ± 0.2 |
| KSSPISNEAAKPSFSFP [YOR098C/NUP1] | 2.96 ± 0.037 | 3 ± 0.04 | 2.86 ± 0.05 | 2.93 ± 0.045 |
| QHIYPSSTPGVANYSAM [GAL11] | 3.01 ± 0.11 | 2.81 ± 0.14 | 2.85 ± 0.11 | 2.7 ± 0.12 |
| EKLNKTDENTPSADGAD [ITC1] | 3.01 ± 0.054 | 3.05 ± 0.05 | 3.35 ± 0.098 | 3.29 ± 0.061 |
| VTHMDQIFVRGSQIKFI [SMD3] | 2.17 ± 0.13 | 2.04 ± 0.067 | 2.55 ± 0.13 | 2.67 ± 0.14 |
| EGYGLRDVMCTDGVIGS [RPO31] | 2.58 ± 0.14 | 2.84 ± 0.06 | 2.35 ± 0.11 | 3.29 ± 0.14 |
| LNPNEYFSVTTARRNVS [SWI3] | 1.85 ± 0.14 | 2.19 ± 0.076 | 1.64 ± 0.072 | 1.67 ± 0.082 |
| MEIVANAKESNYTDLIW [MED1] | 3.44 ± 0.078 | 2.83 ± 0.081 | 3.27 ± 0.094 | 3.41 ± 0.16 |
| AGMTTIVRDLDRPGSKF [RPL3] | 2.95 ± 0.08 | 3.15 ± 0.11 | 2.39 ± 0.11 | 3.24 ± 0.18 |
| NTEEVNRLEKEQSVKTQ [LIN1] | – | 1.74 ± 0.27 | 2.21 ± 0.2 | – |
| YLREDQMIDTSILPTRD [NUT1] | 2.94 ± 0.072 | 2.42 ± 0.048 | 3.21 ± 0.069 | 2.98 ± 0.068 |
| DQLIISSSANKLLQLFL [YML103C/NUP188] | 1.89 ± 0.086 | 2.54 ± 0.055 | 1.91 ± 0.063 | 2.17 ± 0.066 |
| DTTANNGKVQYFLRRQY [YJL039C/NUP192] | 2.83 ± 0.15 | 2.98 ± 0.091 | 2.71 ± 0.095 | 2.65 ± 0.14 |
| AGKSLVSKSEPKFFLGE [QCR2] | 3.08 ± 0.054 | 3.32 ± 0.047 | 3.41 ± 0.09 | 3.31 ± 0.067 |
| GRRISENGQRDLDRIAA [RPS19A] | 3.4 ± 0.064 | 3.45 ± 0.17 | 3.76 ± 0.25 | 3.42 ± 0.14 |
| AVLKKIQSKAVEQGYED [YCG1] | 3.08 ± 0.072 | 3.07 ± 0.084 | 3.05 ± 0.12 | 3.38 ± 0.092 |
| VPSAKPLILTPPQLANQ [SNF11] | 2.64 ± 0.052 | 2.03 ± 0.033 | 2.63 ± 0.049 | 2.26 ± 0.052 |
| IGESARIIREMFAYAKE [RPT4] | 2.04 ± 0.063 | 1.75 ± 0.038 | 2.31 ± 0.065 | 2.29 ± 0.064 |
| VIITDGTLLREDDNTPA [YDL088C/ASM4] | 2.94 ± 0.056 | 3.01 ± 0.042 | 2.94 ± 0.077 | 2.9 ± 0.081 |
| TGLLIARRTLQKLGLDE [RPL5] | 3.39 ± 0.094 | 3.18 ± 0.16 | 3.2 ± 0.13 | 3.05 ± 0.17 |
| GLSIHPTQITQYTQRLS [SRP68] | 1.92 ± 0.071 | 2.13 ± 0.071 | 2.09 ± 0.063 | 1.93 ± 0.066 |
| ISLAVEGEPVNSPNYFV [COR1] | 2.83 ± 0.12 | 1.99 ± 0.065 | 3.09 ± 0.14 | 2.43 ± 0.094 |
| LAFAKLVHSEYLINGKR [SRP68] | 2.15 ± 0.082 | 2.53 ± 0.034 | 2.18 ± 0.11 | 2.5 ± 0.056 |

| Sequence | protein stability index (san1∆) | protein stability index (ubr1∆) | protein stability index (doa10∆) | protein stability index (pdr5∆) |
| --- | --- | --- | --- | --- |
| TRVEGSGGGDSEVQRTM [RPT6] | 2.98 ± 0.087 | 3.19 ± 0.051 | 2.73 ± 0.098 | 2.65 ± 0.13 |
| NKPAIKEDSTIQDSNGD [SWI3] | 3.14 ± 0.06 | 3.04 ± 0.054 | 2.92 ± 0.076 | 3.05 ± 0.073 |
| VWAPTQKCFKLTHRLGG [POP1] | 2.3 ± 0.085 | 2.47 ± 0.054 | 2.2 ± 0.056 | 1.88 ± 0.056 |
| QHQSLSRSSSKNVNIED [ESC2] | 2.32 ± 0.11 | 3.04 ± 0.084 | 2.83 ± 0.18 | 2.69 ± 0.11 |
| STSYHLNSTLESLYDLI [MED6] | 3 ± 0.084 | 2.51 ± 0.12 | 2.86 ± 0.12 | 2.62 ± 0.094 |
| DSEDEDSMKDTTDMISV [YML031W/NDC1] | 3.2 ± 0.11 | 2.98 ± 0.21 | 3.17 ± 0.17 | – |
| KDRYINGDKKVDIYSLP [YMR129W/POM152] | 3.03 ± 0.042 | 3.23 ± 0.069 | 3.15 ± 0.091 | 2.77 ± 0.094 |
| PYSKNAVEQLAGCKIDN [YDL088C/ASM4] | 2.41 ± 0.092 | 2.56 ± 0.047 | 2.58 ± 0.089 | 2.6 ± 0.089 |
| DALRRGMLAMASLHSKE [MED4] | 2.24 ± 0.17 | 2.05 ± 0.17 | 1.87 ± 0.15 | 2.23 ± 0.15 |
| KIINKPNELSQILTVDP [RPC82] | 3.01 ± 0.075 | 2.78 ± 0.09 | 3.13 ± 0.28 | 2.56 ± 0.13 |
| GDFGGWFCPCHGSHYDI [RIP1] | 3 ± 0.058 | 3.18 ± 0.082 | 2.87 ± 0.15 | 3.11 ± 0.078 |
| FSHPAHQQRMSRTAADI [YCG1] | 2.4 ± 0.074 | 2.13 ± 0.06 | 2.01 ± 0.07 | 2.15 ± 0.093 |
| FVFQTVFDTAITSWYEN [QCR9] | 1.74 ± 0.077 | 1.97 ± 0.044 | 1.66 ± 0.054 | 1.6 ± 0.039 |
| LSTLPAGKSLVSKSEPK [QCR2] | 2.68 ± 0.11 | 3.44 ± 0.14 | 2.95 ± 0.17 | 3.27 ± 0.1 |
| LLSKKHGQLKLSIQYMI [RPN5] | 1.36 ± 0.094 | 1.65 ± 0.053 | 1.43 ± 0.046 | 1.96 ± 0.053 |
| PPETKLPYPTYWSDKKA [SNF5] | 3.15 ± 0.056 | 2.86 ± 0.053 | 2.91 ± 0.085 | 2.82 ± 0.062 |
| GAETDELSMIMEHFSQQ [RPS12] | 3.35 ± 0.059 | 3.23 ± 0.089 | 2.88 ± 0.088 | 3.25 ± 0.1 |
| GQLPQLPKLNLPKYQTI [SNF5] | 2.57 ± 0.074 | 2.71 ± 0.047 | 2.78 ± 0.062 | 2.67 ± 0.055 |
| RNLNNLKQENAYLLIRR [RPB8] | 3.15 ± 0.071 | 3 ± 0.054 | 3.14 ± 0.072 | 3.16 ± 0.084 |
| YFKLDLTSDLVYFGDEN [RRI2] | – | 1.48 ± 0.08 | 2.09 ± 0.15 | 2.47 ± 0.3 |
| SKTSENKVSNTVSPTQD [SIR2] | 2.83 ± 0.093 | 3.15 ± 0.12 | 2.98 ± 0.14 | 3.12 ± 0.066 |
| SQHKKILEELDFVRNEL [SMC3] | 3.2 ± 0.08 | 3.01 ± 0.057 | 3.35 ± 0.14 | 3.09 ± 0.096 |
| DILLNERVWNICLYSSF [AAR2] | 1.55 ± 0.14 | 1.84 ± 0.04 | 1.91 ± 0.066 | 1.68 ± 0.064 |
| QFAPAFLNTPNNNINEN [SSN2] | 2.66 ± 0.068 | 2.89 ± 0.06 | 2.92 ± 0.067 | 2.98 ± 0.063 |
| TRKAVRPQKLRASLVPG [RPL6B] | 2.9 ± 0.14 | 1.83 ± 0.046 | 2.26 ± 0.11 | 1.67 ± 0.11 |
| SNDRVNPLIELTPIQKK [ITC1] | 2.15 ± 0.27 | 2.65 ± 0.11 | 2.92 ± 0.2 | 1.99 ± 0.13 |
